The record followed here is patent US20150218277A1.

Ends that are not written are not given here.

Test [1] concerns the target HSP90 endogenous to CHO cells (Hamster), P46633. The test can be described thus: cell-based or functional assay.
Test [2] addresses T1, Heat Shock Protein 90 (HSP90), endogenous, in human cell lines (human), P07900. In words: cell-based or functional assay.
Test [3] has as its target T1, Heat Shock Protein 90 (HSP90), …. The test can be described thus: streptavidin affinity purification of biotinylated peptide from lysates of cancer cells (UMSCC1, H1975), immunoblot for HSP90.

Sequence of HSP90 endogenous to CHO cells (Hamster), P46633 (P46633 whole entry): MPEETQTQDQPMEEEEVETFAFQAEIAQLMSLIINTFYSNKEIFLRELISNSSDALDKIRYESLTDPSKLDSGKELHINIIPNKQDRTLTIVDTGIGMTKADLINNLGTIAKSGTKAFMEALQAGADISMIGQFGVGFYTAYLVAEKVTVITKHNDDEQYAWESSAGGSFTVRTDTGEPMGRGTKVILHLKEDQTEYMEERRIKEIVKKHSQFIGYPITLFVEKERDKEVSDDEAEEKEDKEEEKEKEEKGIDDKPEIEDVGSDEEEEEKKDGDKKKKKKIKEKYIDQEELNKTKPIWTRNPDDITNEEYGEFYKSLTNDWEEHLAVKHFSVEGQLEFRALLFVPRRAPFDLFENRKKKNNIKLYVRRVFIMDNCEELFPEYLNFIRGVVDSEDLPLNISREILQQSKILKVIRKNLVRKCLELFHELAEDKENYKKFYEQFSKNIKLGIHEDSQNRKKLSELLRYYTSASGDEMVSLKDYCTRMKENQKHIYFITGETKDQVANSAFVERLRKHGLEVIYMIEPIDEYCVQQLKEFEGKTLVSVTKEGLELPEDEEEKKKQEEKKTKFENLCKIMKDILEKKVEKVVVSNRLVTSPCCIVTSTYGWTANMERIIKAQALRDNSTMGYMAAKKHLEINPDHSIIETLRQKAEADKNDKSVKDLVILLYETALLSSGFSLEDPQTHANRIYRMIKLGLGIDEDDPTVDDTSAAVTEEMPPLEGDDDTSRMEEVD

As to YGRKKRRQRRRSVDNPHVC (not fully specified (N-terminus)) [Specific Peptide Biotin-[…]-SVDNPHVC], in test [1], the clonogenic survival, CHO cells (EGFR negative) (surviving fraction) stood at 0.98. In test [2], the clonogenic survival, A549 cells (WT-EGFR) (surviving fraction) was 0.57; the clonogenic survival, H1975 cells (T790M-EGFR) (surviving fraction) turned out to be 0.4; the clonogenic survival, H3255 cells (L858R-EGFR) (surviving fraction) worked out at 0.71; the clonogenic survival, HeLa cells (WT-EGFR) (surviving fraction) stood at 0.72. In test [2], the clonogenic survival, Het1A normal epithelial cells (WT-EGFR) (surviving fraction) was 1.02; the clonogenic survival, MRC5 normal fibroblasts (WT-EGFR) (surviving fraction) stood at 1.01; the clonogenic survival, UMSCC1 cells (WT-EGFR) (surviving fraction) is 0.76; the clonogenic survival, UMSCC10B cells (WT-EGFR) (surviving fraction) was 0.63. This molecule showed a clonogenic survival, UMSCC74B cells (WT-EGFR) (surviving fraction) in test [2] of 0.74. Further, the fold increase in HSP90 protein binding in test [3] is 5 to 10 fold.

In turn, YGRKKRRQRRRNHVPSDVC (not fully specified (N-terminus)) [Non Specific Peptide Biotin-[…]-NHVPSDVC] registered a clonogenic survival, CHO cells (EGFR negative) (surviving fraction) in test [1] of 1.12. In test [2], this molecule displayed a clonogenic survival, A549 cells (WT-EGFR) (surviving fraction) of 0.81; a clonogenic survival, H1975 cells (T790M-EGFR) (surviving fraction) of 0.77; a clonogenic survival, H3255 cells (L858R-EGFR) (surviving fraction) of 1; a clonogenic survival, HeLa cells (WT-EGFR) (surviving fraction) of 0.92. In test [2], this molecule yielded a clonogenic survival, Het1A normal epithelial cells (WT-EGFR) (surviving fraction) of 0.91; a clonogenic survival, MRC5 normal fibroblasts (WT-EGFR) (surviving fraction) of 1.04; a clonogenic survival, UMSCC1 cells (WT-EGFR) (surviving fraction) of 1.02; a clonogenic survival, UMSCC10B cells (WT-EGFR) (surviving fraction) of 0.96. In addition, the clonogenic survival, UMSCC74B cells (WT-EGFR) (surviving fraction) in test [2] was found to be 0.89.
